T1: PUF4 RNA-binding domain (Saccharomyces cerevisiae, UniProt P25339 537-888)
T1 sequence: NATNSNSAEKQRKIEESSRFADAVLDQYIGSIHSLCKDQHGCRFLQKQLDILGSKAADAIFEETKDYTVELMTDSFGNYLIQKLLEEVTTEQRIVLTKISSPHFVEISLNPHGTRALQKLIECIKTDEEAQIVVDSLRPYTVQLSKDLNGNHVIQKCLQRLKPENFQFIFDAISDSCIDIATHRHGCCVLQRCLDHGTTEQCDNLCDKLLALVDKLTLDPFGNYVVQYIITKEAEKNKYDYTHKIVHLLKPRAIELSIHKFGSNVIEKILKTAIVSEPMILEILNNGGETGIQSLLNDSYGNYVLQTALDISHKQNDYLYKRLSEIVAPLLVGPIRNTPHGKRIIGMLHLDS


Target: T1, PUF4 RNA-binding domain
Experiment: Mg; RNA-MaP; 20 mM Na-HEPES pH 7.4, 30 mM KOAc, 0.75 mM MgCl2, 0.1% Tween-20, 5% glycerol, 0.1 mg/mL BSA, 2 mM DTT; 25 C; 0.0125-409.6 nM protein
Details: tags: N-His6-TEV cleaved; C-SNAP kept, Cy3B-labelled; label: tethered on chip by stalled RNA polymerase

Binder | Kd [nM]
Id_ii_S4_P3E.2_K3.1_C3.2_[C-2A]_H3.1_A3.1_F3.1_T3.2_[T9A] (ssRNA) RNA: UUUGACAACUGAUCGUUCUUUCUAUUGUAUAUAAAUUCUUUCUCGAUCAGUUGUCUUU | 11.8
Id_ii_S4_P3E.2_K3.1_C3.2_[C-2A]_H3.1_A3.1_F3.1_T3.2_[A10G] (ssRNA) RNA: UUUGACAACUGAUCGUUCUUUCUAUUGUAUAUAUGUUCUUUCUCGAUCAGUUGUCUUU | 10.6
Id_ii_S4_P3E.2_K3.1_C3.2_[C-2A]_H3.1_A3.1_F3.1_T3.2_[A10T] (ssRNA) RNA: UUUGACAACUGAUCGUUCUUUCUAUUGUAUAUAUUUUCUUUCUCGAUCAGUUGUCUUU | 2.72
Id_ii_S4_P3E.2_K3.1_C3.2_[T-1G]_H3.1_A3.1_F3.1_T3.2_[T9C]_[A10C] (ssRNA) RNA: UUUGACAACUGAUCGUUCUUUCUCGUGUAUAUACCUUCUUUCUCGAUCAGUUGUCUUU | 11.3
Id_ii_S4_P3E.2_K3.1_C3.2_[T-1G]_H3.1_A3.1_F3.1_T3.2_[T9A]_[A10G] (ssRNA) RNA: UUUGACAACUGAUCGUUCUUUCUCGUGUAUAUAAGUUCUUUCUCGAUCAGUUGUCUUU | 6.69
Id_ii_S4_P3E.2_K3.1_C3.2_[T-1G]_H3.1_A3.1_F3.1_T3.2_[T9A]_[A10C] (ssRNA) RNA: UUUGACAACUGAUCGUUCUUUCUCGUGUAUAUAACUUCUUUCUCGAUCAGUUGUCUUU | 8.59
Id_ii_S4_P3E.2_K3.1_C3.2_[T-1G]_H3.1_A3.1_F3.1_T3.2_[A10T] (ssRNA) RNA: UUUGACAACUGAUCGUUCUUUCUCGUGUAUAUAUUUUCUUUCUCGAUCAGUUGUCUUU | 1.48
UCUCUUCGUAAUAUUAUCUCUU (ssRNA) [Ib_S1_P5E.1_K5.1_C5.1_H5.1_[T1C]_A5.1_[T5A]_F5.1_T5.1] | 2020
Id_ii_S4_P3E.2_K3.1_C3.2_[T-1G]_H3.1_A3.1_F3.1_T3.2 (ssRNA) RNA: UUUGACAACUGAUCGUUCUUUCUCGUGUAUAUAUAUUCUUUCUCGAUCAGUUGUCUUU | 1.4
Id_ii_S4_P3E.2_K3.1_C3.2_[T-1C]_H3.1_A3.1_F3.1_T3.2_[T9G]_[A10C] (ssRNA) RNA: UUUGACAACUGAUCGUUCUUUCUCCUGUAUAUAGCUUCUUUCUCGAUCAGUUGUCUUU | 2
Id_ii_S4_P3E.2_K3.1_C3.2_[T-1C]_H3.1_A3.1_F3.1_T3.2_[T9G]_[A10T] (ssRNA) RNA: UUUGACAACUGAUCGUUCUUUCUCCUGUAUAUAGUUUCUUUCUCGAUCAGUUGUCUUU | 1.77
Id_ii_S4_P3E.2_K3.1_C3.2_[T-1C]_H3.1_A3.1_F3.1_T3.2_[T9C]_[A10G] (ssRNA) RNA: UUUGACAACUGAUCGUUCUUUCUCCUGUAUAUACGUUCUUUCUCGAUCAGUUGUCUUU | 6.54
Id_ii_S4_P3E.2_K3.1_C3.2_[T-1C]_H3.1_A3.1_F3.1_T3.2_[T9C]_[A10C] (ssRNA) RNA: UUUGACAACUGAUCGUUCUUUCUCCUGUAUAUACCUUCUUUCUCGAUCAGUUGUCUUU | 2.05
Id_ii_S4_P3E.2_K3.1_C3.2_[T-1C]_H3.1_A3.1_F3.1_T3.2_[T9C]_[A10T] (ssRNA) RNA: UUUGACAACUGAUCGUUCUUUCUCCUGUAUAUACUUUCUUUCUCGAUCAGUUGUCUUU | 1.47
Id_ii_S4_P3E.2_K3.1_C3.2_[T-1C]_H3.1_A3.1_F3.1_T3.2_[T9A]_[A10T] (ssRNA) RNA: UUUGACAACUGAUCGUUCUUUCUCCUGUAUAUAAUUUCUUUCUCGAUCAGUUGUCUUU | 1.23
Id_ii_S4_P3E.2_K3.1_C3.2_[T-1C]_H3.1_A3.1_F3.1_T3.2_[A10G] (ssRNA) RNA: UUUGACAACUGAUCGUUCUUUCUCCUGUAUAUAUGUUCUUUCUCGAUCAGUUGUCUUU | 1.76
Id_ii_S4_P3E.2_K3.1_C3.2_[T-1C]_H3.1_A3.1_F3.1_T3.2_[A10T] (ssRNA) RNA: UUUGACAACUGAUCGUUCUUUCUCCUGUAUAUAUUUUCUUUCUCGAUCAGUUGUCUUU | 1.16
Id_ii_S4_P3E.2_K3.1_C3.2_[T-1C]_H3.1_A3.1_F3.1_T3.2 (ssRNA) RNA: UUUGACAACUGAUCGUUCUUUCUCCUGUAUAUAUAUUCUUUCUCGAUCAGUUGUCUUU | 0.873
UCUCUUAGUACUAUUAUCUCUU (ssRNA) [Ib_S1_P5E.1_K5.1_C5.1_H5.1_[T1A]_A5.1_[T5C]_F5.1_T5.1] | 1400
Id_ii_S4_P3E.2_K3.1_C3.2_[T-1A]_H3.1_A3.1_F3.1_T3.2_[T9G]_[A10C] (ssRNA) RNA: UUUGACAACUGAUCGUUCUUUCUCAUGUAUAUAGCUUCUUUCUCGAUCAGUUGUCUUU | 2.75
Id_ii_S4_P3E.2_K3.1_C3.2_[T-1A]_H3.1_A3.1_F3.1_T3.2_[T9A]_[A10C] (ssRNA) RNA: UUUGACAACUGAUCGUUCUUUCUCAUGUAUAUAACUUCUUUCUCGAUCAGUUGUCUUU | 4.63
Id_ii_S4_P3E.2_K3.1_C3.2_[T-1A]_H3.1_A3.1_F3.1_T3.2_[T9A] (ssRNA) RNA: UUUGACAACUGAUCGUUCUUUCUCAUGUAUAUAAAUUCUUUCUCGAUCAGUUGUCUUU | 5.28
Id_ii_S4_P3E.2_K3.1_C3.2_[T-1A]_H3.1_A3.1_F3.1_T3.2 (ssRNA) RNA: UUUGACAACUGAUCGUUCUUUCUCAUGUAUAUAUAUUCUUUCUCGAUCAGUUGUCUUU | 1.73
Id_ii_S4_P3E.2_K3.1_C3.2_H3.1_A3.1_F3.1_T3.2_[T9G]_[A10T] (ssRNA) RNA: UUUGACAACUGAUCGUUCUUUCUCUUGUAUAUAGUUUCUUUCUCGAUCAGUUGUCUUU | 3.88

Binder | Kd [nM]
Id_ii_S4_P3E.2_K3.1_C3.2_H3.1_A3.1_F3.1_T3.2_[T9A] (ssRNA) RNA: UUUGACAACUGAUCGUUCUUUCUCUUGUAUAUAAAUUCUUUCUCGAUCAGUUGUCUUU | 3.34
Id_ii_S4_P3E.2_K3.1_C3.2_H3.1_A3.1_F3.1_T3.2_[A10T] (ssRNA) RNA: UUUGACAACUGAUCGUUCUUUCUCUUGUAUAUAUUUUCUUUCUCGAUCAGUUGUCUUU | 1.14
If_S4_P3E.2_K3.1_C3.2_H3.1_A3.1_F3.1_T3.2 (ssRNA) RNA: UUUGACAACUGAUCGUUCUUUCUCUUGUAUAUAUAUUCUUUCUCGAUCAGUUGUCUUU | 0.951
Id_ii_S4_P3E.3_K3.2_C3.2_[C-2G]_[T-1G]_H3.2_A3.1_F3.1_T3.2_[T9A]_[A10C] (ssRNA) RNA: UUUGACAACUGAUCGUUCUUUCUGGUAUAUAUAACUUCUUUCUCGAUCAGUUGUCUUU | 2160
Id_ii_S4_P3E.3_K3.2_C3.2_[C-2G]_[T-1G]_H3.2_A3.1_F3.1_T3.2_[T9A] (ssRNA) RNA: UUUGACAACUGAUCGUUCUUUCUGGUAUAUAUAAAUUCUUUCUCGAUCAGUUGUCUUU | 676
UCUCUUCGUAUCAUUAUCUCUU (ssRNA) [Ib_S1_P5E.1_K5.1_C5.1_H5.1_[T1C]_A5.1_[T6C]_F5.1_T5.1] | 1380
Id_ii_S4_P3E.3_K3.2_C3.2_[C-2G]_[T-1G]_H3.2_A3.1_F3.1_T3.2_[A10G] (ssRNA) RNA: UUUGACAACUGAUCGUUCUUUCUGGUAUAUAUAUGUUCUUUCUCGAUCAGUUGUCUUU | 562
Id_ii_S4_P3E.3_K3.2_C3.2_[C-2G]_[T-1G]_H3.2_A3.1_F3.1_T3.2_[A10T] (ssRNA) RNA: UUUGACAACUGAUCGUUCUUUCUGGUAUAUAUAUUUUCUUUCUCGAUCAGUUGUCUUU | 234
Id_ii_S4_P3E.3_K3.2_C3.2_[C-2G]_[T-1C]_H3.2_A3.1_F3.1_T3.2_[T9C]_[A10T] (ssRNA) RNA: UUUGACAACUGAUCGUUCUUUCUGCUAUAUAUACUUUCUUUCUCGAUCAGUUGUCUUU | 557
Id_ii_S4_P3E.3_K3.2_C3.2_[C-2G]_[T-1C]_H3.2_A3.1_F3.1_T3.2_[T9A]_[A10C] (ssRNA) RNA: UUUGACAACUGAUCGUUCUUUCUGCUAUAUAUAACUUCUUUCUCGAUCAGUUGUCUUU | 1200
Id_ii_S4_P3E.3_K3.2_C3.2_[C-2G]_[T-1C]_H3.2_A3.1_F3.1_T3.2_[A10T] (ssRNA) RNA: UUUGACAACUGAUCGUUCUUUCUGCUAUAUAUAUUUUCUUUCUCGAUCAGUUGUCUUU | 149
Id_ii_S4_P3E.3_K3.2_C3.2_[C-2G]_H3.2_A3.1_F3.1_T3.2_[T9C]_[A10T] (ssRNA) RNA: UUUGACAACUGAUCGUUCUUUCUGUUAUAUAUACUUUCUUUCUCGAUCAGUUGUCUUU | 146
Id_ii_S4_P3E.3_K3.2_C3.2_[C-2G]_H3.2_A3.1_F3.1_T3.2_[T9A]_[A10G] (ssRNA) RNA: UUUGACAACUGAUCGUUCUUUCUGUUAUAUAUAAGUUCUUUCUCGAUCAGUUGUCUUU | 304
Id_ii_S4_P3E.3_K3.2_C3.2_[C-2G]_H3.2_A3.1_F3.1_T3.2_[A10T] (ssRNA) RNA: UUUGACAACUGAUCGUUCUUUCUGUUAUAUAUAUUUUCUUUCUCGAUCAGUUGUCUUU | 16.8
Id_ii_S4_P3E.3_K3.2_C3.2_[C-2G]_H3.2_A3.1_F3.1_T3.2 (ssRNA) RNA: UUUGACAACUGAUCGUUCUUUCUGUUAUAUAUAUAUUCUUUCUCGAUCAGUUGUCUUU | 43.8
Id_ii_S4_P3E.3_K3.2_C3.2_[C-2T]_[T-1G]_H3.2_A3.1_F3.1_T3.2_[T9G]_[A10C] (ssRNA) RNA: UUUGACAACUGAUCGUUCUUUCUUGUAUAUAUAGCUUCUUUCUCGAUCAGUUGUCUUU | 2.89
UCUCUUAGUAUAAUUAUCUCUU (ssRNA) [Ib_S1_P5E.1_K5.1_C5.1_H5.1_[T1A]_A5.1_[T6A]_F5.1_T5.1] | 1030
Id_ii_S4_P3E.3_K3.2_C3.2_[C-2T]_[T-1G]_H3.2_A3.1_F3.1_T3.2_[T9A]_[A10T] (ssRNA) RNA: UUUGACAACUGAUCGUUCUUUCUUGUAUAUAUAAUUUCUUUCUCGAUCAGUUGUCUUU | 1.81
Id_ii_S4_P3E.3_K3.2_C3.2_[C-2T]_[T-1C]_H3.2_A3.1_F3.1_T3.2_[T9C]_[A10G] (ssRNA) RNA: UUUGACAACUGAUCGUUCUUUCUUCUAUAUAUACGUUCUUUCUCGAUCAGUUGUCUUU | 467
Id_ii_S4_P3E.3_K3.2_C3.2_[C-2T]_[T-1C]_H3.2_A3.1_F3.1_T3.2_[T9C] (ssRNA) RNA: UUUGACAACUGAUCGUUCUUUCUUCUAUAUAUACAUUCUUUCUCGAUCAGUUGUCUUU | 252
Id_ii_S4_P3E.3_K3.2_C3.2_[C-2T]_[T-1C]_H3.2_A3.1_F3.1_T3.2_[T9A]_[A10T] (ssRNA) RNA: UUUGACAACUGAUCGUUCUUUCUUCUAUAUAUAAUUUCUUUCUCGAUCAGUUGUCUUU | 151
Id_ii_S4_P3E.3_K3.2_C3.2_[C-2T]_[T-1C]_H3.2_A3.1_F3.1_T3.2_[T9A] (ssRNA) RNA: UUUGACAACUGAUCGUUCUUUCUUCUAUAUAUAAAUUCUUUCUCGAUCAGUUGUCUUU | 472
Id_ii_S4_P3E.3_K3.2_C3.2_[C-2T]_[T-1C]_H3.2_A3.1_F3.1_T3.2_[A10C] (ssRNA) RNA: UUUGACAACUGAUCGUUCUUUCUUCUAUAUAUAUCUUCUUUCUCGAUCAGUUGUCUUU | 120
Id_ii_S4_P3E.3_K3.2_C3.2_[C-2T]_[T-1C]_H3.2_A3.1_F3.1_T3.2_[A10T] (ssRNA) RNA: UUUGACAACUGAUCGUUCUUUCUUCUAUAUAUAUUUUCUUUCUCGAUCAGUUGUCUUU | 38

From article PMC9352680, “A comprehensive thermodynamic model for RNA binding by the Saccharomyces cerevisiae Pumilio protein PUF4”
